To fix the notation:
B1: glmS ribozyme (parent)
chain: AUAAAAGCGCCAGAACUACAGAAAUGUAGUUGACGAGGAGGAGGUUUAUCGAAUUUUCGGCGGAUGCCUCCAAA

What all share (settings): with glucosamine-6-phosphate
The variants in series [1] derive from B1. The series can be described thus: kcat; higher = faster cleavage; RNA array. The essentials: (§1)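 Glucosamine-6-phosphate in HEPES/KCl/Mg(OAc)2 buffer, at 40 μM to 10 mM, was flowed over barcoded ribozyme variants transcribed in situ by E. coli RNA polymerase on sequenced MiSeq chips. Tracking was through a hybridised Cy3 probe at 37 °C. kobs, kcat and KM came from exponential decay fits and weighted Michaelis–Menten fits of normalised per-tile medians.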

Series [2] covers variants of B1. The experiment in a line: KM; higher = weaker cofactor use; RNA array. In short, it runs like this: as §1
In series [3] the parent is B1. The series can be described thus: self-cleavage kobs at 40 uM GlcN6P; higher = faster cleavage; RNA array. In short, it runs like this: as §1
In series [4] the parent is B1. The experiment in a line: self-cleavage kobs at 10000 uM GlcN6P; higher = faster cleavage; RNA array. The essentials:
as §1

Variants of B1 are the subject of series [5]. The series can be described thus: self-cleavage kobs at 160 uM GlcN6P; higher = faster cleavage; RNA array. In short, it runs like this: as §1
Variants of B1 are the subject of series [6]. The series can be described thus: self-cleavage kobs at 640 uM GlcN6P; higher = faster cleavage; RNA array. The essentials:
as §1

The variants in series [7] derive from B1. The experiment in a line: self-cleavage kobs at 2500 uM GlcN6P; higher = faster cleavage; RNA array. In short, it runs like this:
as §1

± gives the standard error. For some of these results: Variants at the floor of the assay were thinned out.

The values below come from the supplement of paper PMC7125110.

Turning to G13C U56C, the turnover number (kcat) in series [1] was 2.35e-05 ± 6.9e-08 s⁻¹. Besides, the Michaelis-Menten constant (KM) in series [2] amounted to 1.1 ± 0.019 mM. For the same variant, the “self-cleavage kobs at 40 uM GlcN6P” value in series [3] is under 1e-05 s⁻¹. Moreover, the “self-cleavage kobs at 10000 uM GlcN6P” value in series [4] turned out to be 2.11e-05 ± 8e-06 s⁻¹.

Turning to U46A C50U C58A C71G, the turnover number (kcat) in series [1] was found to be 1.07e-05 ± 3e-06 s⁻¹.

Consider U46A U54G C70G, for which, in series [1], the kcat worked out at 0.000171 ± 6e-05 s⁻¹. For the same variant, in series [5], the “self-cleavage kobs at 160 uM GlcN6P” value came to 6.23e-05 ± 2e-05 s⁻¹. For the same variant, the “self-cleavage kobs at 640 uM GlcN6P” value in series [6] is 0.000291 ± 6.7e-05 s⁻¹. Besides, the “self-cleavage kobs at 2500 uM GlcN6P” value in series [7] is 0.000305 ± 6.4e-05 s⁻¹. Also, the “self-cleavage kobs at 10000 uM GlcN6P” value in series [4] is 0.000127 ± 2.9e-05 s⁻¹.

With A52G U65A, in series [1], the kcat worked out at 0.00041 ± 0.00018 s⁻¹. Besides, the “self-cleavage kobs at 640 uM GlcN6P” value in series [6] was found to be 6.01e-05 ± 1.2e-05 s⁻¹. Further, the “self-cleavage kobs at 2500 uM GlcN6P” value in series [7] amounted to 0.000103 ± 1.6e-05 s⁻¹. The “self-cleavage kobs at 10000 uM GlcN6P” value in series [4] stood at 0.00028 ± 4.3e-05 s⁻¹.

Turning to C50U G63U, the kcat in series [1] stood at 1.75e-05 ± 7.2e-06 s⁻¹. In series [3], the “self-cleavage kobs at 40 uM GlcN6P” value is under 1e-05 s⁻¹.

On to C58A G66A, for which, in series [1], the kcat turned out to be 0.000322 ± 5.8e-05 s⁻¹. Besides, in series [2], the Michaelis-Menten constant (KM) was 4.64 ± 1.5 mM. The “self-cleavage kobs at 640 uM GlcN6P” value in series [6] stood at 4.87e-05 ± 1e-05 s⁻¹. Besides, the “self-cleavage kobs at 2500 uM GlcN6P” value in series [7] turned out to be 9.9e-05 ± 1.6e-05 s⁻¹. Further, in series [4], the “self-cleavage kobs at 10000 uM GlcN6P” value came out at 0.000228 ± 2.8e-05 s⁻¹.

As to C50G U69G, the catalytic constant (kcat) in series [1] was found to be 0.000141 ± 7.4e-06 s⁻¹. Also, in series [3], the “self-cleavage kobs at 40 uM GlcN6P” value stood at 0.000135 ± 1.6e-05 s⁻¹. In addition, the “self-cleavage kobs at 160 uM GlcN6P” value in series [5] was 0.000165 ± 3e-05 s⁻¹. Also, the “self-cleavage kobs at 640 uM GlcN6P” value in series [6] was 0.000151 ± 2.4e-05 s⁻¹. Further, in series [7], the “self-cleavage kobs at 2500 uM GlcN6P” value stood at 0.000126 ± 2e-05 s⁻¹. In series [4], the “self-cleavage kobs at 10000 uM GlcN6P” value turned out to be 0.000141 ± 1.5e-05 s⁻¹.

Regarding U30C U46G, the kcat in series [1] came to 3.27e-05 ± 2.8e-06 s⁻¹. The Michaelis-Menten constant (KM) in series [2] came to 5.04 ± 1 mM.

Turning to A15G G29U, the kcat in series [1] was determined as 0.00177 ± 0.00076 s⁻¹. In addition, the “self-cleavage kobs at 40 uM GlcN6P” value in series [3] turned out to be 6.06e-05 ± 1.7e-05 s⁻¹. In series [5], the “self-cleavage kobs at 160 uM GlcN6P” value worked out at 0.000104 ± 4.4e-05 s⁻¹. Besides, in series [6], the “self-cleavage kobs at 640 uM GlcN6P” value worked out at 0.000265 ± 0.0001 s⁻¹. Further, the “self-cleavage kobs at 2500 uM GlcN6P” value in series [7] is 0.00118 ± 0.00039 s⁻¹. Further, the “self-cleavage kobs at 10000 uM GlcN6P” value in series [4] stood at 0.00145 ± 0.00039 s⁻¹.

As to U54G U56A G63C, the catalytic constant (kcat) in series [1] was under 1e-05 s⁻¹. Besides, the “self-cleavage kobs at 40 uM GlcN6P” value in series [3] is under 1e-05 s⁻¹. Besides, the “self-cleavage kobs at 160 uM GlcN6P” value in series [5] was under 1e-05 s⁻¹.

Regarding C50G, the turnover number (kcat) in series [1] amounted to 0.000456 ± 6.7e-05 s⁻¹. Moreover, the Michaelis constant (KM) in series [2] amounted to 0.0907 ± 0.038 mM. The “self-cleavage kobs at 40 uM GlcN6P” value in series [3] amounted to 0.000121 ± 1.5e-05 s⁻¹. In addition, the “self-cleavage kobs at 160 uM GlcN6P” value in series [5] stood at 0.000444 ± 4.8e-05 s⁻¹. Moreover, the “self-cleavage kobs at 640 uM GlcN6P” value in series [6] is 0.000443 ± 4.5e-05 s⁻¹. For the same variant, the “self-cleavage kobs at 2500 uM GlcN6P” value in series [7] was 0.000399 ± 4e-05 s⁻¹. Further, the “self-cleavage kobs at 10000 uM GlcN6P” value in series [4] stood at 0.000408 ± 5.8e-05 s⁻¹.

For G13U U65G, in series [1], the kcat was 0.000372 ± 2.8e-05 s⁻¹. Besides, the KM in series [2] stood at 3.75 ± 0.54 mM. For the same variant, the “self-cleavage kobs at 640 uM GlcN6P” value in series [6] turned out to be 5.82e-05 ± 1.2e-05 s⁻¹. In addition, the “self-cleavage kobs at 2500 uM GlcN6P” value in series [7] was determined as 0.000136 ± 2.7e-05 s⁻¹. For the same variant, the “self-cleavage kobs at 10000 uM GlcN6P” value in series [4] was 0.000276 ± 3.5e-05 s⁻¹.

Turning to G13C U31C, the kcat in series [1] is 0.0015 ± 0.00033 s⁻¹. The KM in series [2] was determined as 3.46 ± 1.2 mM. In addition, the “self-cleavage kobs at 40 uM GlcN6P” value in series [3] was determined as 3.14e-05 ± 1e-05 s⁻¹. Moreover, in series [5], the “self-cleavage kobs at 160 uM GlcN6P” value came to 0.000104 ± 4.3e-05 s⁻¹. In addition, the “self-cleavage kobs at 640 uM GlcN6P” value in series [6] worked out at 0.000211 ± 2.9e-05 s⁻¹. In addition, the “self-cleavage kobs at 2500 uM GlcN6P” value in series [7] was determined as 0.000748 ± 0.00013 s⁻¹. Besides, the “self-cleavage kobs at 10000 uM GlcN6P” value in series [4] is 0.00109 ± 0.00014 s⁻¹.

Turning to G13A G37U, the kcat in series [1] amounted to 1.65e-05 ± 1.7e-06 s⁻¹. For the same variant, in series [2], the Michaelis-Menten constant (KM) stood at 0.621 ± 0.19 mM. The “self-cleavage kobs at 40 uM GlcN6P” value in series [3] is under 1e-05 s⁻¹. Besides, the “self-cleavage kobs at 10000 uM GlcN6P” value in series [4] was under 1e-05 s⁻¹.

As to C16A U54G, the kcat in series [1] was determined as 0.00103 ± 0.0004 s⁻¹. For the same variant, the “self-cleavage kobs at 40 uM GlcN6P” value in series [3] turned out to be 4.66e-05 ± 1e-05 s⁻¹. Further, the “self-cleavage kobs at 160 uM GlcN6P” value in series [5] was determined as 9.7e-05 ± 1.9e-05 s⁻¹. The “self-cleavage kobs at 640 uM GlcN6P” value in series [6] is 0.00029 ± 4.8e-05 s⁻¹. For the same variant, the “self-cleavage kobs at 2500 uM GlcN6P” value in series [7] amounted to 0.000532 ± 9.9e-05 s⁻¹. The “self-cleavage kobs at 10000 uM GlcN6P” value in series [4] was determined as 0.00141 ± 0.00027 s⁻¹.

For the variant C11U A42G, the kcat in series [1] was 0.00345 ± 0.0015 s⁻¹. Also, in series [3], the “self-cleavage kobs at 40 uM GlcN6P” value was found to be 9.14e-05 ± 3.5e-05 s⁻¹. Moreover, the “self-cleavage kobs at 160 uM GlcN6P” value in series [5] turned out to be 0.000114 ± 3e-05 s⁻¹. For the same variant, the “self-cleavage kobs at 640 uM GlcN6P” value in series [6] came out at 0.000561 ± 0.00013 s⁻¹. Also, in series [7], the “self-cleavage kobs at 2500 uM GlcN6P” value was 0.00178 ± 0.0004 s⁻¹. The “self-cleavage kobs at 10000 uM GlcN6P” value in series [4] is 0.0022 ± 0.00065 s⁻¹.

One may read the kcat as the maximal rate divided by the concentration of active sites. As usually defined, the KM is the concentration of substrate that gives half-maximal velocity.
